According to patent US20230066984A1, “New Carbon Glycoside Glycosyltransferase and Use Thereof” (CAS Center for Excellence in Molecular Plant Sciences, priority 2020, published 2023):

Legend:
[1] = substrate: O=C1C[C@@](O)(c2ccc(O)cc2)Oc2cc(O)cc(O)c21; experiment: in vitro kinetic parameters of C-glycosyltransferase PhCGT1 with 2-hydroxynaringenin (FIG. 5); type: biochemical; settings: other: PhCGT1; substrate 2-hydroxynaringenin; 37.0 °C
Method: (§1) The in vitro enzyme catalytic assay system is 100 μL. The reaction system includes: 0.1 mM glycosyl receptor (phloretin or 2-hydroxynaringenin), 0.3 mM UDP glucose, 25 μL supernatant crude enzyme solution, and Buffer A is used to make up the volume to 100 μL, and react at 37° C. for 2 h. After the reaction was completed, an equal volume of methanol was added to terminate the reaction, and HPLC was used for product analysis. HPLC detection conditions: chromatographic column: reverse phase C18 column [SilGreen ODS column (ø 4.6×250 mm)], detection wavelength 280 nm; mobile phase: acetonitrile (0.1% formic acid)-water (0.1% formic acid) mixture gradient elution, with increased ratio from 5:95 to 100:0 within 0 to 20 min, and the flow rate was 1 mL/min.
The Km value is the substrate concentration when the enzymatic reaction presents half of its maximum reaction rate, and the lower the Km value, the higher the enzymatic activity of the C-glycosyltransferase.

[2] = In vitro functional identification of C-glycosyltransferases by HPLC, phloretin as glycosyl receptor; type: biochemical; settings: 0.1 mM phloretin, 0.3 mM UDP glucose, crude enzyme, 37° C., 2 h, HPLC (FIG. 1A)
Method: The recombinant plasmid was transformed into competent cells of Escherichia coli BL21 (DE3), and cultured overnight at 37° C. in solid LB medium (kanamycin 50 μg/mL). Single colony was transferred to a 2 mL LB liquid medium (containing 50 μg/ml kanamycin) and incubated overnight. The bacterial fluid was transferred to a new 100 ml LB liquid medium with antibiotics and incubated at 37° C. and 250 r/min until OD600 reached 0.5-0.6. The culture was cooled down to 16° C. in a water bath. Then inducer IPTG was added at a final concentration of 0.1 mM. The mixture was cultured at 16° C. for low temperature induction and 180 r/min for 20 h. The BL21(DE3) recombinant strain carrying the pET28a empty plasmid was used as a blank control, and the culture operation was the same as above. The bacteria were harvested by centrifugation (6000 r/min, 5 min), re-suspended in 1 mL of lysis buffer Buffer A (20 mM Tris-HCl, pH 8.0; 100 mM NaCl), and DNase was added to a final concentration of 5 μg/mL, Mg^2+ to a final concentration of 2 mM; protease inhibitor PMSF to a final concentration of 1 mM; the bacteria were incubated on ice for 30 min and then sonicated; refrigerated centrifugation (10,000 rpm, 30 min, 4° C.), filtered through a 0.2 µm filter membrane to obtain the supernatant crude enzyme solution, and added 20% glycerol for cryopreservation (−20° C.).
as §1

Molecule	Km [1] [µM]	conversion of substrate phloretin to C-glycosylated product (Nothofagin) [2]	5′ C-glycosylation of 3′-glycosylated phloretin giving phloretin-3′,5′-C-diglucoside [2]
Phyllostachys edulis (moso bamboo) C-glycosyltransferase PhCGT1, SEQ ID NO: 1 (Phyllostachys edulis) (protein, pET28a (pCZ86), E. coli BL21(DE3) in fermentation; A1 assay uses crude enzyme supernatant) MPTSGGRTGDRPHVILLPSAGMGHLVPFSRLAVALSSGHGCDVSVVAVLPTVSAAESRHLQGLLDASPAVRRLDLHLAPFDESEFPGADPFFLRFEAMRRSAPLLGPLLADTGASALVTDIALASVVIPVAKEIHLPCYVLFTASAAMLSFCAYFPTYLDTNAGRVVGDVDIPGVYRIPKASIPQALHDPNHLFTRQFVANGQDLAKADGVLVNTFDALELEAVTALRQGSVAAGFPPVFSVGPLVTVNLPAGEAAKESGNDYMYWLDAQPAQSVVYVSFGSRKAISRDQVRELAIGLEASGQPFLWVVKSTVVDRDDSAELSELLGEGFLERVQGQGFVTKAWVEQEEVLKHESIGLFISHCGWNSVTEAAASGVPVLAWPRFGDQRVNAGVVARGGLGVWVERWSWEGEEDVVSGEEIAEKVKAVMADETVRKKAASVGEAAVKEFADGGTSYRSLTEFVRRCRDLAVLD	1.75 ± 0.66	can convert the substrate phloretin to a product having a shorter retention time	
PpCGT1: C-glycosyltransferase from high knot bamboo, SEQ ID NO: 3 (protein, listed as Phyllostachys prominens) MPTSGSRTGGRPHVILLPSAGMGHLVPFSRLAVALSSGHGCDVSVVAVLPTVSAAESRHLQGLLDASPAVRRLDLHLAPFDESEFPGADPFFLRFEAMRRSAPLLGPLLADTGESALVTDIALASVVIPVAKEIHLPCYVLFTASAAMLSFCAYFPTYLDTNAGRVVGDVDIPGVYRIPKASIPQALHDRNHLFTRQFVANGQDLAKADGVLVNTFDALELEAVTALRQGSVAAGFPPVFSVGPLVTVNLPAGEAAKESGNDYMYWLDAQPARSVVYVSFGSRKAISRNQVRELAVGLEASGQRFLWVVKSTVVDRDDSAELSELLDEGFLERVQGRGLVTKAWVEQEEVLKHESIGLFISHCGWNSVTEAAASGVPVLAWPRFGDQRVNAGVVARGGLGVWVERWSWEGEEGVVSGEEIAEKVKAVMADETVRKKAASVGEAAVKEFADGGTSYRSLTEFVRRCRDLAVLD		can convert the substrate phloretin to a product having a shorter retention time	
PhCGT2: C-glycosyltransferase from moso bamboo, SEQ ID NO: 4 (protein, listed as Phyllostachys edulis) MASRAMPSSSDRTGGAPRVVLLPSAGMGHLVPFGRLAVALSSGHACDVSVVTVLPTVSSAESKHLQGLFDAFPAVRRLDLHLAPFDASEFSDADPFYVRYEAVRRSAPLLGPLLADADASALVADIALASVVIPVAKELLIPCYIFFTASATMFSLLAYFPTYLHSNAGHSIGDVDVPGVYRIPMSSIPQALHDPNNLFTQQFVANGRSLAEADGLLVNTFDAFEPEAVTALRHGTVAPGFPPVFALGPLSPVGFPAGEAARESGNYTTWLDAQPARSVVYVSFGSRKALLRDQLSELAAGLEASGCRFLWVVKGTVVDRDDDRELRELLGEVFLQRVNGRALVTKAWVEQEEVLKHPAVGLFISHCGWNSVTEATVSGVPVLAWPRFADQRVSAGVVARRGLGVWVERWSWEGEERVVTGDEIAEKVKSVLADETLRKNSTMVREAAAAAVATGGTSYRSLAKFVRRCST		can convert the substrate phloretin to a product having a shorter retention time	
OsCGT2: C-glycosyltransferase from Japonica rice, SEQ ID NO: 5 (protein, Oryza Sativa japonica) MCSAATPNSGDVRATPGSSRPHVVLLPSAGMGHLVPFTRLAAALCSGHGCDVSLVAAVPTVSSAEARHLAAHFTAFPAVRRLELDLASLDVSEFAGADPFYVRYEAIRRSASLLAPLLAGGASAAASALVADIALASVVIPVAKDLRLPCYVFFTASATMFSFLAYLPTYLDANAGGGHAIGDVDVPGVCRVPTSSVPQALHDPDDIFTRQFIANARSLANADGLVVNAFDALEPEAVAALRQGTVAAGLPPVFAVGPLSPAPIPAKDSGSYLPWLDAQPARSVVYVSFGSRKALPRDQLSELAAGLEASGHRFLWVVKGAVVDRDDAGELTDLLGEAFLQRIHGRGLVTMAWVRQEEVLNHPSVGLFISHCGWNSVTEAAASGVPVVAWPRFADQRVNAGVVARAGIGVWVDTWSWEGEDDGVVSAEDIAGKVRSAMADEGVRKAAASVREAAARAVAAGGSSYRSLAELVRRCRDGLVITNGM		can convert the substrate phloretin to a product having a shorter retention time	
SbCGT1: C-glycosyltransferase from Sorghum, SEQ ID NO: 6 (protein, Sorghum bicolor) MAPPATKSLGELDGGARPHVMFIPSAGMGHLLPFFRVIAALAAHDVVDISVVTVLPTVSAAEADHFASLFAALPRVSRVDFHLLPFDASSEFPGHDPFLLRWEALRRSAHLFRPLIAGAAGPRVSAVVTDVTLTSHVIPIAKELGVQCHVLFVSCATMLSLAAYTPVHLDKKNKGEHGPGVGVGVGVGDVDIPGVRRIPQSYLPQPLLDLNKLFTKQFIDNGREIINADGFLVNTFDALEPVALAALRDGKVVAGFPPVYAIGPLRSKEEEATTGSPPVAWLDEQPARSVVYVAFGNRNAVSLEQIREIAAGLEASGCRFLWVLKTTTVDRDDTAELTDDVLGEGFLERVQGRGLVTKAWVDQEAVLKHASVGLFLSHSGWNSVTEAAAAGVPLLAWPRGGDHRVNATVVVSGGVGVWMEQWSWDGEDWLVTGEEIGKKVKEVMSDAAVRARATRTGEEAAKAVAEGGTSYRSMQKFISSLKAHCSP		can convert the substrate phloretin to a product having a shorter retention time	can catalyze the glycosylation of the 3′-glycosylated phloretin at the 5′ position
SbCGT2: C-glycosyltransferase from Sorghum, SEQ ID NO: 7 (protein, Sorghum bicolor) MAPSAMPASGDHTGATPHVVLLPSAGMGHLVPFARLAVALSEGHGCDVSFAAVLPTVSSAESRHLRALFAAAPAVRRLDFRLAPFDESQFPGADPFFLRFEALRRSAPLLGPLLDAAQASALVTDIVLASVVLPVAKARGVPCYVLFTSSAAMLSLCAYFPAHLDANAAAGGGRLGVGDVDIPGVYRIPKSSVPQALHDPKHLFTQQFVANGRGLVAADGILVNTFDAFEPDAITALRQGSVVSDFPPVFAVGPLQPVRFQVAEKPAHYMRWLSAQPARSVVYVSFGSRKAISTDQLRELAAGLEASGQRFLWVVKSTVVDRDDAADLADLLGDGFLERVQGRAFVTKGWVEQEEILQHGSVGLFISHCGWNSVTEAAAFGVPVLAWPRFGDQRVNAAVVARGGLGAWEERWTWDGEKGLVTGEEVAEKINAVVGNDVVARKAARVGDAAAAAAGKGGTSYQSLADFVGRCRDAGW		can convert the substrate phloretin to a product having a shorter retention time	
TaCGT1-A: C-glycosyltransferase from wheat, SEQ ID NO: 8 (protein, listed as Triticum aestivum) MPTSGDGPTSQPHVVLLPSAGMGHLVPFSRLAVALSSAHGCDVSLVTVLPTVSSAESSHLEALFGAFPAVRRLEFHLADFDASEFPNADPFFLRFEAMRRSAPLLLGPLLARASATALVTDIALSSVVIPVAKQLRLPCYVLFTASAAMLSLCVHFPAYLDANGNGLVGDVDIPGVYQIPKASVPQALHDPKHLFTRQFVANGRELAKSDGVLVNSFDAFEPEAIAALREGAVSAAGFFPPVFSVGPLAPVSFPAGNNNRADYIQWLEAQPARSVVYVSFGSRKAVARDQLRELAAGLEASGHRFLWVVKSTVVDRDDDADLGELLGEGFLERVQGRGMVTKGWVEQEDVLKQESVGLFISHCGWNSVTEAAAGGLPVLAWPRFGDQRVNAGVVARSGLGVWVDSWSWEGEEGVVSGESIAEKVKAVMGDEIARNKAVSVRDAAAKAVADGGTSYRNLARFAQRCRDGRVRE		can convert the substrate phloretin to a product having a shorter retention time	can catalyze the glycosylation of the 3′-glycosylated phloretin at the 5′ position
TaCGT1-B: C-glycosyltransferase from wheat, SEQ ID NO: 9 (protein, listed as Triticum aestivum) MPTSGDGSGALPHVVLLPSAGMGHLVPFSRLAVSFSSSDHGCGVSVVTVLPTVSSAESAHLDALFGACPAVRRLDFHLARFDASEFPGADPFFLRFEAMRRSAPLLGPLLAGAGASALVTDIALASVVIPVARELRLPCYVLFTASAAMLSLCVHFPAYLDANAGGPVGDVDIPGVYRVPKASIPQALHHPEHLFTRQFVANGRELAKSDGLLVNSFDEFEPEAISALRDGSVAAGFPPVFSVGPLAPVSFSAGEPPENQADYMRWLEAQPTRSVVYVSFGSRKAISKDQLKELAVGLEASGHRFLWVVKSTVVDREDEAELSELLGEGFLERVHGRGMVTKGWVEQEEVLKQESIGLFISHCGWNSVTEAAANGLPVLAWPRFGDQRVNAGVVARSGLGVWEERWSWEGEEGVVSGENIAEKVKAVMADETVRNKAVSVQDAAAKAVADGGTSYRSLAQFVQRCRDLSVSK		can convert the substrate phloretin to a product having a shorter retention time	
